# B1: recombinant human IL-17E-Fc fusion protein (Fc fusion)
# chain: YSHWPSCCPSKGQDTSEELLRWSTVPVPPLEPARPNRHPESCRASEDGPLNSRAISPWRYELDRDLNRLPQDLYHARCLCPHCVSLQTGSHMDPRGNSELLYHNQTVFYRRPCHGEKGTHKGYCLERRLYRVSLACVCVRPRVMGEPKSADKTHTCPPCPAPELLGGPSVFLFPPKPKDTLMISRTPEVTCVVVDVSHEDPEVKFNWYVDGVEVHNAKTKPREEQYNSTYRVVSVLTVLHQDWLNGKEYKCKVSNKALPAPIEKTISKAKGQPREPQVYTLPPSRDELTKNQVSLTCLVKGFYPSDDIAVEWESNGQPENNYKTTPPVLDSDGSFFLYSKLTVDKSRWQQGNVFSCSVMHEALHNHYTQKSLSLSPGK
# notes: Used as conditioned medium of transfected 293E cells; also called IL-17 like-Fc; rhIL-17 like-Fc
# Target: T1, IL-17RB-3-Fc fusion protein (human)
# T1 construct: Used as 5x concentrated conditioned medium; also called huIL-17RB-3 like-Fc; HIL17RB-3-Fc
# Experiment: restates the competition assay of Example 8
# Procedure: The conditioned media from 293E cells transfected to express IL-17E-Fc fusion protein (SEQ ID NO: 23), prepared as described in Example 7 above, was collected, concentrated and used for the binding assay. Specificity of ligand binding was determined by competition with soluble blocking receptors, either IL-17RB-2-Fc or IL-17RB-3-Fc fusion proteins (SEQ ID NOS: 22 or 23, respectively). IL-17R-Fc fusion protein (consisting of the extracellular domain of SEQ ID NO: 3) was purified from conditioned media collected from transfected 293E cells and used as a control. Conditioned media from 293E cells transfected with IL-17RB-2-Fc or IL-17-RB-3-Fc (deposited with the ATCC on Mar. 14, 2001 under Accession Nos. and respectively), as described in Example 6 above, was concentrated (5×) with an Amicon 3Kd cut-off Centracon (#4203) and used for blocking.
# Prior to the binding assay, 0.5 ml of IL-17E-Fc fusion protein containing (1×) conditioned media was added into vials each containing 0.5 ml 5× conditioned media of IL-17RB-2-Fc, IL-17RB-3-Fc, or 0.5 ml of 5 μg/ml IL-17R-Fc protein in RPMI 1640. Each vial was incubated on ice for 2 hours.
# Subsequently, GM3104A cells (1×10⁶ cells per sample) were incubated with 1 ml of 8% FBS/PBS, at 4° C. for 1 hour. […]
binder,measurement,value
B1,binding result,binds
